Measured values reported in the supplement of paper PMC12764529.
± gives the half width of the 95% confidence interval.

Key:
[1] = folding stability dG unfold (combined trypsin and chymotrypsin); higher = more stable
Summary of the method: (§1)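 Unfolding free energy was derived, per protease or combined, by relating Bayesian-fitted K50 values from sequencing counts to a sequence-predicted unfolded-state K50 and a shared folded-state K50. The underlying digests exposed cysteine-free mini-proteins under 80 residues, in a PA-tagged cDNA display construct, to trypsin and chymotrypsin at 11 threefold-diluted concentrations and to a no-protease condition. A filter kept only designs with AlphaFold2 dimer inter-PAE above 15.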

[2] = folding stability dG unfold from chymotrypsin proteolysis; higher = more stable
Summary of the method: as §1

[3] = folding stability dG unfold from trypsin proteolysis; higher = more stable
Summary of the method: as §1

Sequence	folding stability dG unfold [1]	folding stability dG unfold [2]	folding stability dG unfold [3]
SAGGSAGGSAGGLVLRGPNDSLLFVLYNPDTGLAVFYNPATNQLLVVNLPLPKPKPSELLSAGGSAGGSAGG [r7_383_TrMRF]	2.68 ± 0.15 kcal/mol	2.81 ± 0.049 kcal/mol	2.38 ± 0.089 kcal/mol
SAGGGRARLIELKEARFNPETGVLELTALVEFPEIGTLVVFRIRVPLEGEPRIEIEVEVYPIKPGEASAGGS [r16_207_TrMRF]	4 ± 0.091 kcal/mol	4.31 ± 0.056 kcal/mol	3.17 ± 0.07 kcal/mol
SAGGKEVKIEIEEKDGKLVIKITVKTEEELKEEIKKLLEEEFGLEVEEVKVEKNKNGEVTIYVVIKKKSAGG [r13_158_TrROS_Hall]	2.51 ± 0.44 kcal/mol	2.64 ± 0.2 kcal/mol	1.45 ± 0.17 kcal/mol
SMSFEAELTLPDQPVTVPVTLDPATGTATVTVTTTHPDRDETTTTTVTVSDPSELLALLRELPPGATLRLSA [r9_713_JUSTAS]	0.771 ± 0.068 kcal/mol	0.974 ± 0.059 kcal/mol	0.307 ± 0.079 kcal/mol
SAGGSGDPNAAPVVVKVTIDITRPTADDSYVTSPVELTLLESEVDEFLAELEKEPDLELKVEVTLESAGGSA [r2_270_JUSTAS]	1.07 ± 0.11 kcal/mol	1.25 ± 0.026 kcal/mol	0.829 ± 0.063 kcal/mol
SAGGSAGGSAGGKLILKVKVEVVSVKVEPLPGVPGEVKVEVEVKVEVELIEVSEEELKSSAGGSAGGSAGGS [r10_654_TrROS_Hall]	2.19 ± 0.18 kcal/mol	2.34 ± 0.098 kcal/mol	1.88 ± 0.26 kcal/mol
SAGGSAGGSADPNAFPITIFTFKMEIEDVEKTPNGQPELRYKMEVVEIRPIWLPPDDLEDLSAGGSAGGSAG [r3_121_TrROS]	3.79 ± 0.15 kcal/mol	4.39 ± 0.097 kcal/mol	3 ± 0.16 kcal/mol
SAGGSAGDKVVTVTATFTTTDPNGNEITIIAPITFLNGEGTAVIDAKAFNPTGELIAEATITVPIGSAGGSA [r15_967_TrMRF]	2.07 ± 0.087 kcal/mol	2.34 ± 0.028 kcal/mol	1.69 ± 0.057 kcal/mol
SFRIMASYDPDYGTITVYVQFQDPDNGEPIPAEEIAKEIAEQFPGAKIDDIEPNPDGWFKIEIKVPPGAFSA [r9_87_TrROS]	2.46 ± 0.19 kcal/mol	2.55 ± 0.044 kcal/mol	2.19 ± 0.077 kcal/mol
MEELEKLPGIKVEPIREEDGRLYLRVTFTDEVAKALGKPPVTVLIEVEPGEELELSPELRELLRKLGIEVVS [r1_256_TrROS_Hall]	3.86 ± 0.12 kcal/mol	4.34 ± 0.11 kcal/mol	2.6 ± 0.061 kcal/mol
SAGGSAGGKPVTVEVDIVVKPGDTIEFPPGAKVEIVEKKEVEVNGKKYQVFKIKVTLPPGEEALSAGGSAGG [r6_454_TrROS_Hall]	2.72 ± 0.23 kcal/mol	2.854 ± 0.026 kcal/mol	2.31 ± 0.12 kcal/mol
KKKILIFITGDNPELAERIRKELEELGYDVEVKVVTTPEEMEKAIEEAEKTDIVIVIHLPPALPLSPELAFS [r1_497_TrMRF]	1.9 ± 0.19 kcal/mol	0.709 ± 0.12 kcal/mol	2.58 ± 0.13 kcal/mol
SAGGSAGGSAGGKKIRFYFPNGNPVELTEILDVDPEDKWARIDVEHNGKKHKHPMPADDLSAGGSAGGSAGG [r7_236_TrROS]	< -1 kcal/mol	-1.19 ± 0.39 kcal/mol	-1.36 ± 0.68 kcal/mol
SAFRIKIELWNPNGKPQEHTFPVPPGDPDKLVEEIEDEVQKHHPNDGYKMRAEILEVTPNGWVTIRIWYSAG [r14_622_TrROS]	2.79 ± 0.18 kcal/mol	3.01 ± 0.11 kcal/mol	2.66 ± 0.077 kcal/mol
SMPLIIIAKKNKDGTGTILIKKGDKVIEIEFEKNIKPEELKKKAIETALTLKKKTEELGIPIEIKEIIFESA [r9_751_TrMRF]	2.1 ± 0.091 kcal/mol	2.23 ± 0.077 kcal/mol	1.77 ± 0.082 kcal/mol
SAGGGSMSESLSLVEEEIKVGETVVKVKRLIYPVSGTALVEITKPGGGPIGVFNTTISPSTGGVELLSAGGS [r16_798_JUSTAS]	< -1 kcal/mol	-1.38 ± 0.57 kcal/mol	-1.04 ± 0.17 kcal/mol
SAGGSAKIKIPKSYTAEILDASYDPETKTVTVKIKLFGKPATATIYPDGTVEIDLPNGKKITIPVGSAGGSA [r15_111_TrMRF]	2.27 ± 0.099 kcal/mol	2.62 ± 0.04 kcal/mol	1.47 ± 0.083 kcal/mol
SAGPPKTRTVMFPPEDIPKILEELKKLPPDITIHFPDPDPGNWFMIEVTDDEIKIENPGNGEERTIPISAGG [r19_154_TrROS]	0.0412 ± 0.16 kcal/mol	0.252 ± 0.11 kcal/mol	-0.712 ± 0.24 kcal/mol
SAGMTITVESLEDALALAEELAEKYPGLKVTVEVRLSPDGKTVEVRVTIEPAPPVKVVDPETGEEVEEESAG [r5_870_TrROS_Hall]	3.43 ± 0.3 kcal/mol	2.3 ± 0.12 kcal/mol	3.72 ± 0.36 kcal/mol
SAGGSAGGSAGGMPPATTVVEKPETSLTLEKTPTTVTIHDKATGKTSTVPAAEVDPALLSAGGSAGGSAGGS [r10_512_JUSTAS]	0.138 ± 0.1 kcal/mol	0.297 ± 0.075 kcal/mol	-0.373 ± 0.11 kcal/mol
SAGGSAMTVTVELEFEPVTVTDADGKEREVPVRVKVTAKVELVRDPETGELVERVEVTSIEIEVEPSAGGSA [r15_884_TrROS_Hall]	1.87 ± 0.15 kcal/mol	1.92 ± 0.079 kcal/mol	1.73 ± 0.069 kcal/mol
